Measurements: publication PMC3646996 (Journal of molecular biology, 2013)
Where two headings read alike, the source gives them in different places.

How the values were obtained:
PhoB (Escherichia coli) [1] = biological target: PhoB (Escherichia coli) (UniProt P0AFJ5); conditions: cited from earlier work
PhoB (Escherichia coli) [2] = biological target: PhoB (Escherichia coli) (UniProt P0AFJ5); conditions: cited from earlier work; remark: listed apart in the source
AUC [3] = biological target: the molecule itself; experiment: AUC
AUC [4] = biological target: the molecule itself; experiment: AUC; remark: listed apart in the source
OmpR = biological target: T1, OmpR (Escherichia coli, UniProt P0AA16 1-239); experiment: ITC
T1 sequence: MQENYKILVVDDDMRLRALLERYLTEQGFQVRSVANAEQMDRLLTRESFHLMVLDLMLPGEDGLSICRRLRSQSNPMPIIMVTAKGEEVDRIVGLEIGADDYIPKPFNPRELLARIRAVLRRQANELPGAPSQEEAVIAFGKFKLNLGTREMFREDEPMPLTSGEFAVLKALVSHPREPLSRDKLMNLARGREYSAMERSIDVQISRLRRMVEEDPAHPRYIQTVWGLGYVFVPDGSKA

Chain of PhoB (Escherichia coli) (P0AFJ5 whole entry): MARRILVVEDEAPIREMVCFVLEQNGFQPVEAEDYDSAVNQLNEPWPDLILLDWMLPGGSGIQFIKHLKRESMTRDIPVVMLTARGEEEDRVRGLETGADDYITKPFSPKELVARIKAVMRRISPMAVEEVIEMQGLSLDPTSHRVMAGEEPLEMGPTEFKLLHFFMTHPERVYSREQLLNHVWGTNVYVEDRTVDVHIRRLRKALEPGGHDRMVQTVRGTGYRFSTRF

For PhoB (from UniProt P0AFJ5), the Kd (PhoB (Escherichia coli) [1]) is listed as 380 µM and the Kd (PhoB (Escherichia coli) [2]) is listed as 5.1 µM.

B1: OmpR (unphosphorylated, untreated) (natural protein, Escherichia coli, UniProt P0AA16 1-239, looked up)
chain: MQENYKILVVDDDMRLRALLERYLTEQGFQVRSVANAEQMDRLLTRESFHLMVLDLMLPGEDGLSICRRLRSQSNPMPIIMVTAKGEEVDRIVGLEIGADDYIPKPFNPRELLARIRAVLRRQANELPGAPSQEEAVIAFGKFKLNLGTREMFREDEPMPLTSGEFAVLKALVSHPREPLSRDKLMNLARGREYSAMERSIDVQISRLRRMVEEDPAHPRYIQTVWGLGYVFVPDGSKA
For B1, the Kd (AUC [3]) was 1100 µM and the “stoichiometry N” value (AUC [3]) was 2.

B2: BeF3−-treated OmpR (natural protein, Escherichia coli, UniProt P0AA16 1-239, looked up)
chain: MQENYKILVVDDDMRLRALLERYLTEQGFQVRSVANAEQMDRLLTRESFHLMVLDLMLPGEDGLSICRRLRSQSNPMPIIMVTAKGEEVDRIVGLEIGADDYIPKPFNPRELLARIRAVLRRQANELPGAPSQEEAVIAFGKFKLNLGTREMFREDEPMPLTSGEFAVLKALVSHPREPLSRDKLMNLARGREYSAMERSIDVQISRLRRMVEEDPAHPRYIQTVWGLGYVFVPDGSKA
modifications: BeF3− (noncovalent small molecule phosphoryl analog); residue not given
In the case of B2, the Kd (AUC [4]) is reported as 7 µM and the “stoichiometry N” value (AUC [4]) is reported as 2.

B3: F1 (dsDNA)
DNA 1: GCTTTACTTTTGGTTACATATTTCG
DNA 2: CGAAATATGTAACCAAAAGTAAAGC
Molecule B3 has a Kd (OmpR) of 2 µM.
